Results: patent US20080261267A1, “Cellulases from Rumen” (priority 2004, published 2008)

B1: pBKRR.22: rumen endo-beta-1,4-glucanase, sequences FIG. 11/19 (protein)
chain: MLLASFSLFSCGGSDGDDSTPTPSVSLQLVSQSIAEGAQVDAASTTVLTLNYNNPVRVTGNGVTLNGIAVKAKVSGNTSVEIPLTLVEGTVYTLKVAWGAIVAAADGKVVAPEFTLNFTTKGNQQPPIDENSPIAKKMGWGWNLGNHFDTSSGADGVRPQWGYWDNAKPTQVLYNNLRNAGTSTVRIGVTWGNYQNTSNWDIDANYIAEVRQNVEWAEAAGLNVILNMHHDEYWLDIKGAANNSSTNTNIKNRIEKTWKQIAEAFKDKGEFLIFESFNEIQDGGWGWGANRTDGGKQYKTLNEWNQLVVNTIRATGGNNATRWIGIPSYAANPSLALETGFVLPTDAANRLMVSVHFYDPSNFTLSPYVSDDSSEYKSGGYSEWGHTAAKGKADTGSNEDHVVAIFKKLHDKFVAKNIPVYIGEYGCVMHKNTRSNYFRNYYLEYVCRAAHEYGMPLCIWDNNQTGGGNEHHGYFNHTDGQYLNAMESLVKTMIKAATSDDASYTLESVYNKAPK
modifications: Description of sequence sequence derived from genomic DNA library from rumen ecosystem, particularly amino acid sequence of clones pBKRR 22, 6, 8 and 23;(see Figure 19)
B2: pBKRR.14: rumen endoglucanase, sequences FIG. 16/24; also capable of hydrolyzing xylan (protein)
chain: MINVLQHHPEVELSVDKTSVSFNRSGGEETFTVTSSTQPHVSADVSWVVVETGKIDKDHHTEVRVLAGANRKEASAGTLTVSCSDKKVSVSVKQEAFVAPSVASTTAVTPQMVFDAMGPGWNMGNHMDAISNGVSGETVWGNPKCTQATMDGVKAAGYKAVRICTTWEGHIGAAPAYALEQKWLDRVAEIVGYAEKAGLVAIVNTHHDESYWQDISKCYNNAANHEKVKDEVFSVWTQIAEKFKDKGEWLVFESFNEIQDGGWGWSDAFRKNPDAQYKVLNEWNQTFVDAVRSTGGQNATRWLGIPGYACNPGFTIAGLVLPKDYTTANRLMVAVHDYDPYDYTLKDPLIRQWGHTADADKRPSGDNEKAVVDVFNNLKAAYLDKGIPVYLGEMGCSRHTAADFPYQKYYMEYFCKAAADRLLPMYLWDNGAKGVGSERHAYIDHGTGQFVDEDARTLVGLMVKAVTTKDASYTLESVYNSAP
modifications: Description of sequence sequence derived from genomic DNA library from rumen ecosystem, particularly amino acid sequence of clones pBKRR 14 and 20-1; RR14=RR20-1;(see Figure 24)
notes: also capable of hydrolyzing xylan

Tests used:
Type in all cases: biochemical
[1] = TLC analysis of hydrolysis products; details: pH 5.6, 50° C.
Source text: FIG. 7 depicts the result of thin layer chromatography TLC analysis of products of CMC hydrolyzed by endoglucanases derived from a rumial genomic DNA library. The methods used for cellulase and substrate preparation, hydrolysis, TLC, and visualization are described in Example 5. The hydrolysis products glucose, cellobiose, cellotriose are shown an the right side. […] Different pattern was found when using short-chain beta-1,4-glucans.
The products formed by hydrolysis of cellulose-based substrates (cellobiose, cellotetraose, cellopentaose, cellulose and carboxymethyl cellulose) were analysed by thin-layer chromatography (TLC). Solutions containing 20 μg of E. coli cell lysate proteins and 0.2% (wt/vol) substrate in 50 mM acetate buffer (pH 5.6) were incubated at 50° C. until maximum conversion was achieved. The reactions were terminated by heating the preparation for 5 min at 95° C. and hydrolysis products were separated by TLC on silica gel plates (Merck, Darmstadt, Germany) by using a mixture chloroform, glacial acetic acid, and water (6:14:1) as the solvent. […] Sugars were visualized by heating 105° C. for 15 min the plates which were previously sprayed with a reagent containing amine (2 ml), diphenylamine (2 g), acetone (100 ml) and 85% H3PO4 (15 ml).

[2] = pH-dependent activity and pH stability; details: cell lysates; CMC; 40° C.
Procedure: (§1) FIG. 3 represents Table 3 giving an overview over the biochemical properties of the cellulases according to the invention. Reaction was performed at the optimum pH and temperature for each done using CMC as substrate. […] The values for clones pBKRR.1, 9, 11, 13, 14, 16 and 22 are depicted. For each clone the following data are given: • maximum pH at which the remaining activity after 24 h incubation at the indicate pH is >90% (column “Stable at pH”). […] Activity was measured after 2 h incubation and compared with a control reaction in buffer lacking dimethylsulfoxide, • detergent resistance given by the remaining activity in the corresponding buffer (optimum pH) containing the indicate detergent at a concentration for 0 to 3%. […]
(§2) FIG. 4 a-c represent the results of the determination of pH and temperature optima showing graphically views of the pH-dependence activity and temperature-dependence activity of the polypeptides according to the invention. The pH optima of rumial endoglucanases were measured under conditions described in Example 5: 4% CMC, 0.5 mL of 50 mM buffer at the corresponding pH and 0.1 mg E. coli cell lysates, for 5-30 min, at 40° C. Effect of temperature on endoglucanase activity was measured in 50 mM sodium acetate buffer pH 5.6. […]

[3] = Thermal activity and thermostability; details: at the pH optima; CMC
Procedure: as §1, §2

[4] = Cation dependence; details: 10 to 100 mM
Procedure: FIG. 3 represents Table 3 giving an overview over the biochemical properties of the cellulases according to the invention. Reaction was performed at the optimum pH and temperature for each done using CMC as substrate. […] The values for clones pBKRR.1, 9, 11, 13, 14, 16 and 22 are depicted. For each clone the following data are given: • maximum pH at which the remaining activity after 24 h incubation at the indicate pH is >90% (column “Stable at pH”). […] Activity was measured after 2 h incubation and compared with a control reaction in buffer lacking dimethylsulfoxide, • detergent resistance given by the remaining activity in the corresponding buffer (optimum pH) containing the indicate detergent at a concentration for 0 to 3%. […] The effect of mono- (Na^+, K^+, NH4^+, and divalent cations (Ca^2+, Mn^2+, Mg^2+, Sr^2+, Fe^2+, Cu^2+, Ni^2+, Co^2+, Zn^2+) was first examined by treating the enzyme with chelating agents (EDTA and EGTA) to remove any endogenous divalent cations, followed by adding cations to the reaction mixture.
[…] Inhibitors such as N-ethylmalemide, iodoacetate and p-chloromercuribenzoate at concentration from 1-5 mM were incubated in the presence of the enzyme for 30 min (30° C.) prior to the addition of the substrate (CMC). The effects of detergents on the endoglucanase activity was analysed by adding of 1-3% (wt/vol) detergent to the enzyme solution. In all cases, the enzyme activity was assayed in triplicate using the standard cellulose assay described above and the residual activity was expressed as percent of the control value (without addition of chemicals).

Row | Molecule | main hydrolysis products of CMC [1] | activity at alkaline (pH 9.0-10.0) and acidophilic (3.5-4.0) conditions [2] | temperature of improved activity and thermostability [3] | stimulatory effect of Mg^2+ ([4]; chloride salt) | influence of mono- and divalent cations on activity ([4]; chloride salts, after EDTA and EGTA treatment)
1 | B1 | cellobiose and cellotriose | without variation of enzyme activity | – | – | –
2 | B2 | cellobiose and cellotriose | – | 70 °C | 127% | not influenced
